Blank lines part the entries; values can stand above or below the molecule they belong to. *1 amine or outer side, *2 acyl side, *3 side chain or, on linkers, in order; H or OH if unused. Bridges are numbered along the chain shown (N, C = ends). Primed or numbered codes have the meaning given here. Where no end group is shown, it is not given here. [ ]: non-standard residue; d: D form. TATA = O=C(CC[*:1])N1CN(C(=O)CC[*:2])CN(C(=O)CC[*:3])C1; 1Nal = N[C@@H](Cc1cccc2ccccc12)C(=O)O; Glutaryl = O=C(CCCC(=O)[*:2])[*:1]; K(Fl) = lysine bearing fluorescein; Hyp = O=C(O)[C@@H]1C[C@@H](O)CN1; hArg = N=C(N)NCCCC[C@H](N)C(=O)O; Cit = NC(=O)NCCC[C@H](N)C(=O)O; MMAE = monomethyl auristatin E; PABC′ = p-aminobenzylcarbamate; βAla = NCCC(=O)O; Sar = CNCC(=O)O
Experiments:
[1] = molecular target: Nectin-4 on the surface of tumour cell lines (UniProt Q96NY8); assay: flow cytometry, PE antibody staining of A549 cells
[2] = molecular target: Nectin-4 on the surface of tumour cell lines (UniProt Q96NY8); assay: flow cytometry, PE antibody staining of T-47D cells
[3] = molecular target: Nectin-4 on the surface of tumour cell lines (UniProt Q96NY8); assay: flow cytometry, PE antibody staining of HT-29 cells
[4] = molecular target: Nectin-4 on the surface of tumour cell lines (UniProt Q96NY8); assay: flow cytometry, PE antibody staining of HT1080 cells
[5] = molecular target: Nectin-4 on the surface of tumour cell lines (UniProt Q96NY8); assay: flow cytometry, PE antibody staining of HT1376 cells
[6] = molecular target: Nectin-4 on the surface of tumour cell lines (UniProt Q96NY8); assay: flow cytometry, PE antibody staining of HCT-116 cells
[7] = molecular target: Nectin-4 on the surface of tumour cell lines (UniProt Q96NY8); assay: flow cytometry, PE antibody staining of NCI-526 cells
[8] = molecular target: Nectin-4 on the surface of tumour cell lines (UniProt Q96NY8); assay: flow cytometry, PE antibody staining of NCI-H292 cells
[9] = molecular target: Nectin-4 on the surface of tumour cell lines (UniProt Q96NY8); assay: flow cytometry, PE antibody staining of NCI-H322 cells
[10] = molecular target: Nectin-4 on the surface of tumour cell lines (UniProt Q96NY8); assay: flow cytometry, PE antibody staining of NCI-H526 cells
[11] = molecular target: Nectin-4 on the surface of tumour cell lines (UniProt Q96NY8); assay: flow cytometry, PE antibody staining of NCI-H292 cells; remark: listed apart in the source
[12] = molecular target: Nectin-4 on the surface of tumour cell lines (UniProt Q96NY8); assay: flow cytometry, PE antibody staining of NCI-H358 cells
[13] = molecular target: Nectin-4 on the surface of tumour cell lines (UniProt Q96NY8); assay: flow cytometry, PE antibody staining of Panc02.13 cells
[14] = molecular target: Nectin-4 on the surface of tumour cell lines (UniProt Q96NY8); assay: flow cytometry, PE antibody staining of MDA-MB-468 cells
[15] = molecular target: Nectin-4 on the surface of tumour cell lines (UniProt Q96NY8); assay: as above; remark: listed apart in the source
[16] = molecular target: Nectin-4 on the surface of tumour cell lines (UniProt Q96NY8); assay: flow cytometry, PE isotype control on A549 cells
[17] = molecular target: Nectin-4 on the surface of tumour cell lines (UniProt Q96NY8); assay: flow cytometry, PE isotype control on T-47D cells
[18] = molecular target: Nectin-4 on the surface of tumour cell lines (UniProt Q96NY8); assay: flow cytometry, PE isotype control on HT-29 cells
[19] = molecular target: Nectin-4 on the surface of tumour cell lines (UniProt Q96NY8); assay: flow cytometry, PE isotype control on HT1080 cells
[20] = molecular target: Nectin-4 on the surface of tumour cell lines (UniProt Q96NY8); assay: flow cytometry, PE isotype control on HT1376 cells
[21] = molecular target: Nectin-4 on the surface of tumour cell lines (UniProt Q96NY8); assay: flow cytometry, PE isotype control on HCT-116 cells
[22] = molecular target: Nectin-4 on the surface of tumour cell lines (UniProt Q96NY8); assay: flow cytometry, PE isotype control on NCI-526 cells
[23] = molecular target: Nectin-4 on the surface of tumour cell lines (UniProt Q96NY8); assay: flow cytometry, PE isotype control on NCI-H292 cells
[24] = molecular target: Nectin-4 on the surface of tumour cell lines (UniProt Q96NY8); assay: flow cytometry, PE isotype control on NCI-H322 cells
[25] = molecular target: Nectin-4 on the surface of tumour cell lines (UniProt Q96NY8); assay: flow cytometry, PE isotype control on NCI-H526 cells
[26] = molecular target: Nectin-4 on the surface of tumour cell lines (UniProt Q96NY8); assay: flow cytometry, PE isotype control on NCI-H292 cells; remark: listed apart in the source
[27] = molecular target: Nectin-4 on the surface of tumour cell lines (UniProt Q96NY8); assay: flow cytometry, PE isotype control on NCI-H358 cells
[28] = molecular target: Nectin-4 on the surface of tumour cell lines (UniProt Q96NY8); assay: flow cytometry, PE isotype control on Panc02.13 cells
[29] = molecular target: Nectin-4 on the surface of tumour cell lines (UniProt Q96NY8); assay: flow cytometry, PE isotype control on MDA-MB-468 cells
[30] = molecular target: Nectin-4 on the surface of tumour cell lines (UniProt Q96NY8); assay: as above; remark: listed apart in the source
human Nectin-4 = molecular target: T1, human Nectin-4 (human, UniProt Q96NY8 32-349); assay: FP direct binding
T1 construct: a Gly32-Ser349 FLAG construct is described only under the SPR assay; also called PVRL4
T1 sequence (looked up): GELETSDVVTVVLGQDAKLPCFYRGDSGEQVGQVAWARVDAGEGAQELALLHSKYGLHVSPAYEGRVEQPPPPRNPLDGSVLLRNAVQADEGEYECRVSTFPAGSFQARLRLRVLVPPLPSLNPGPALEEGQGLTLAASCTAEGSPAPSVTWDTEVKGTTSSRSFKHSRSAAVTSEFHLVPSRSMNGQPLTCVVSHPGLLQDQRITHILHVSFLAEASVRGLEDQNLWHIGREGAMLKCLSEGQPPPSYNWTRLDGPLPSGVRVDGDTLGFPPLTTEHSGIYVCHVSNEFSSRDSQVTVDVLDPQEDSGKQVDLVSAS
Description: Affinity of the peptides of the invention for human Nectin-4 (Ki) was determined using a fluorescence polarisation assay, in accordance with the methods disclosed in WO 2016/067035. […] Measurements were conducted on a BMG PHERAstar FS equipped with an “FP 485 520 520” optic module which excites at 485 nm and detects parallel and perpendicular emission at 520 nm. The PHERAstar FS was set at 25° C. with 200 flashes per well and a positioning delay of 0.1 second, with each well measured at 5 to 10 minute intervals for 60 minutes. […] Data was analysed using Systat Sigmaplot version 12.0. mP values were fit to a user defined quadratic equation to generate a Kd value: f=ymin+(ymax−ymin)/Lig*((x+Lig+Kd)/2-sqrt((((x+Lig+Kd)/2)\hat{ }2)-(Lig*x))).

[31] = molecular target: T2, Nectin-4 on MDA-MB-468 cells (human, UniProt Q96NY8 32-510); assay: HCS assay on MDA-MB-468 cells, bound agent detected with fluorescent antibody to MMAE
T2 construct: whole, on cells; also called PVRL4; PVRL-4
T2 sequence (looked up): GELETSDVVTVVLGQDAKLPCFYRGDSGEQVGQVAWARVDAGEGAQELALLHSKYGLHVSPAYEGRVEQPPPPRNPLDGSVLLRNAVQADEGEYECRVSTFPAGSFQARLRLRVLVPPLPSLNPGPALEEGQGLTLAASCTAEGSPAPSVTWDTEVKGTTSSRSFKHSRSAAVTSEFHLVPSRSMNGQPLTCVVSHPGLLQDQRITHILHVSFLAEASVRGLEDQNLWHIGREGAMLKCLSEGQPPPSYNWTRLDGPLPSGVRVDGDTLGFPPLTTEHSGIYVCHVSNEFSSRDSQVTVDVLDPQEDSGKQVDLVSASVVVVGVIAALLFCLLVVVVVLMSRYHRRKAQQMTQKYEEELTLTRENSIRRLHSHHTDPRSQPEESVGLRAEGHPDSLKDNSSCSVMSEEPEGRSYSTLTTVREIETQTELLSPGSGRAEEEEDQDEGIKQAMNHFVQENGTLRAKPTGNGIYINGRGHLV
Description: HCS assay was used in Nectin-4 BDC binding study. Cells were incubated with test agent and then washed. Detection was by a fluorescent antibody to MMAE.

[32] = molecular target: T2, Nectin-4 on MDA-MB-468 cells; assay: column 'Historical Kd (nM)' of the HCS table; method of the historical value not stated
[33] = molecular target: T3, human Nectin-4 (human), Q96NY8; assay: FP competition, tracer SEQ ID NO 217; settings: remark: other sources report otherwise
T3 chain: T1 sequence (looked up)

B1: ACPFGCHTDWSWPIWCA-Sar6-K(Fl) (SEQ ID NO: 217) (peptide)
peptide: ACPFGCHTDWSWPIWCA[Sar][Sar][Sar][Sar][Sar][Sar]-{K(Fl)}
modifications: linker 2-6-16 via TATA
notes: also called fluorescent peptide; tracer
Kd (human Nectin-4): 5 nM

B2: BCY8245 (MMAE-PABC-Cit-Val-Glutaryl-BCY8234) (peptide)
peptide: {MMAE-PABC′-Cit-Val-Glutaryl-βAla}-[Sar][Sar][Sar][Sar][Sar][Sar][Sar][Sar][Sar][Sar]CP[1Nal][dD]CM[hArg]DWSTP[Hyp]WC
modifications: linker 11-15-25 via TATA
notes: also called BT8009
Kd [31]: 3.52 nM | Kd [32]: 5.18 nM

B3: BCY7424 (peptide)
peptide: ACPFGCMKNWAWPIWCTNK
modifications: linker 2-6-16 via TATA
Ki [33]: 562 nM

Now from value to molecule:

MFI-Panel [1]: 21.6 | Nectin-4 (percent positive cells) [1]: 1.07% | MFI-Panel [2]: 1810 | Nectin-4 (percent positive cells) [2]: 99% | MFI-Panel [3]: 88.3 | Nectin-4 (percent positive cells) [3]: 40% | MFI-Panel [4]: 134 | Nectin-4 (percent positive cells) [4]: 1.53% | MFI-Panel [5]: 803 | Nectin-4 (percent positive cells) [5]: 92.4% | MFI-Panel [6]: 15.6 | Nectin-4 (percent positive cells) [6]: 1.85% | MFI-Panel [7]: 12.1 | Nectin-4 (percent positive cells) [7]: 1.22% | MFI-Panel [8]: 729 | Nectin-4 (percent positive cells) [8]: 97.9% | MFI-Panel [9]: 1660 | Nectin-4 (percent positive cells) [9]: 99.1% | MFI-Panel [10]: 91.3 | Nectin-4 (percent positive cells) [10]: 0.21% | MFI-Panel [11]: 149 | Nectin-4 (percent positive cells) [11]: 71.1% | MFI-Panel [12]: 361 | Nectin-4 (percent positive cells) [12]: 90.1% | MFI-Panel [13]: 128 | Nectin-4 (percent positive cells) [13]: 51.9% | MFI-Panel [14]: 2320 | Nectin-4 (percent positive cells) [14]: 99% | MFI-Panel [15]: 460 | Nectin-4 (percent positive cells) [15]: 97.1%
Molecule: PE anti-Nectin-4 antibody (R&D, catalog FAB2659P)

MFI-Isotype [16]: 20.5 | MFI-Isotype [17]: 132 | MFI-Isotype [18]: 20.5 | MFI-Isotype [19]: 134 | MFI-Isotype [20]: 36.2 | MFI-Isotype [21]: 14.5 | MFI-Isotype [22]: 8.33 | MFI-Isotype [23]: 180 | MFI-Isotype [24]: 145 | MFI-Isotype [25]: 104 | MFI-Isotype [26]: 22.9 | MFI-Isotype [27]: 26.5 | MFI-Isotype [28]: 36.2 | MFI-Isotype [29]: 184 | MFI-Isotype [30]: 28.9
Molecule: PE isotype control IgG2b (R&D, catalog IC0041P) (antibody)

From patent US20210269480A1 (published 2021)
